According to US20240424125A1 (Zymeworks, published 2024):

Columns and labels:
human FRα on cells [1] = molecular target: T1, human FRα on cells (human, UniProt P15328 25-234); assay: cell-based or functional assay
human FRα on cells [2] = molecular target: T1, human FRα on cells; assay: cell-based or functional assay; remark: listed apart in the source

T1 sequence (P15328 25-234 limits assumed): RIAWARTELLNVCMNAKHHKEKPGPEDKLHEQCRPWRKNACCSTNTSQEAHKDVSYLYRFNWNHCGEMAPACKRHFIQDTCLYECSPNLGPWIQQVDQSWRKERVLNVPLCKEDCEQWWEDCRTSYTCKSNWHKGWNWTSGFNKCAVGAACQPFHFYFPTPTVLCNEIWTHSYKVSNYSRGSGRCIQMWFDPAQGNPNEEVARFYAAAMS

Binder | 3D EC50 (nM), in vitro cytotoxicity, HEC-1-A spheroids, 6 days (human FRα on cells [1]) [nM] | 3D EC50 (nM), in vitro cytotoxicity, IGROV-1 spheroids, 6 days (human FRα on cells [1]) [nM] | 3D EC50 (nM), in vitro cytotoxicity, OVCAR-3 spheroids, 6 days (human FRα on cells [1]) [nM] | 3D EC50 (nM), in vitro cytotoxicity, T-47D spheroids, 6 days (human FRα on cells [1]) [nM] | EC50 (nM), in vitro cytotoxicity, 2D monolayer, JEG-3 cells, 4 days (human FRα on cells [2]) [nM] | EC50 (nM), in vitro cytotoxicity, 2D monolayer, KB-HeLa cells, 4 days (human FRα on cells [2]) [nM] | EC50 (nM), in vitro cytotoxicity, 2D monolayer, T-47D cells, 4 days (human FRα on cells [2]) [nM]
v30384-MC-GGFG-AM-DXd1 (antibody, human IgG1, kappa, drug-linker MC-GGFG-AM-DXd1 on the antibody at DAR 8; conjugated residues not stated) heavy 1: EVQLLESGGGLVQPGGSLRLSCAVSGFSLSSYGVSWVRQAPGKGLEWIGAVNSGGSAYYADSVKGRSTISRDNSKNTVYLQMNSLRAEDTAVYYCARSGSGYPMDYLAIWGQGTLVTVSSASTKGPSVFPLAPSSKSTSGGTAALGCLVKDYFPEPVTVSWNSGALTSGVHTFPAVLQSSGLYSLSSVVTVPSSSLGTQTYICNVNHKPSNTKVDKKVEPKSCDKTHTCPPCPAPELLGGPSVFLFPPKPKDTLMISRTPEVTCVVVDVSHEDPEVKFNWYVDGVEVHNAKTKPREEQYNSTYRVVSVLTVLHQDWLNGKEYKCKVSNKALPAPIEKTISKAKGQPREPQVYVYPPSRDELTKNQVSLTCLVKGFYPSDIAVEWESNGQPENNYKTTPPVLDSDGSFALVSKLTVDKSRWQQGNVFSCSVMHEALHNHYTQKSLSLSPG heavy 2: not shown light: DYQMTQSPSSVSASVGDRVTITCRASQSIGDWLAWYQQKPGKAPKLLIYEASTLASGVPSRFSGSGSGTDFTLTISSVQPEDAATYYCQQGYGRSNVDNIFGGGTKVEVKRTVAAPSVFIFPPSDEQLKSGTASVVCLLNNFYPREAKVQWKVDNALQSGNSQESVTEQDSKDSTYSLSSTLTLSKADYEKHKVYACEVTHQGLSSPVTKSFNRGEC | 1.1 | 0.5 | 8.2 | 0.9 | 0.54 | 0.52 | 2.08
v30384-MC-GGFG-AM-Compound 141 (antibody, human IgG1, kappa, drug-linker MC-GGFG-AM-Compound 141 on the antibody at DAR 8; conjugated residues not stated) heavy 1: EVQLLESGGGLVQPGGSLRLSCAVSGFSLSSYGVSWVRQAPGKGLEWIGAVNSGGSAYYADSVKGRSTISRDNSKNTVYLQMNSLRAEDTAVYYCARSGSGYPMDYLAIWGQGTLVTVSSASTKGPSVFPLAPSSKSTSGGTAALGCLVKDYFPEPVTVSWNSGALTSGVHTFPAVLQSSGLYSLSSVVTVPSSSLGTQTYICNVNHKPSNTKVDKKVEPKSCDKTHTCPPCPAPELLGGPSVFLFPPKPKDTLMISRTPEVTCVVVDVSHEDPEVKFNWYVDGVEVHNAKTKPREEQYNSTYRVVSVLTVLHQDWLNGKEYKCKVSNKALPAPIEKTISKAKGQPREPQVYVYPPSRDELTKNQVSLTCLVKGFYPSDIAVEWESNGQPENNYKTTPPVLDSDGSFALVSKLTVDKSRWQQGNVFSCSVMHEALHNHYTQKSLSLSPG heavy 2: not shown light: DYQMTQSPSSVSASVGDRVTITCRASQSIGDWLAWYQQKPGKAPKLLIYEASTLASGVPSRFSGSGSGTDFTLTISSVQPEDAATYYCQQGYGRSNVDNIFGGGTKVEVKRTVAAPSVFIFPPSDEQLKSGTASVVCLLNNFYPREAKVQWKVDNALQSGNSQESVTEQDSKDSTYSLSSTLTLSKADYEKHKVYACEVTHQGLSSPVTKSFNRGEC | 8.5 | 0.6 | 1.8 | 0.4 | 3.45 | 0.77 | 0.43
v30384-MT-GGFG-Compound 148 (antibody, human IgG1, kappa, drug-linker MT-GGFG-Compound 148 on the antibody at DAR 8; conjugated residues not stated) heavy 1: EVQLLESGGGLVQPGGSLRLSCAVSGFSLSSYGVSWVRQAPGKGLEWIGAVNSGGSAYYADSVKGRSTISRDNSKNTVYLQMNSLRAEDTAVYYCARSGSGYPMDYLAIWGQGTLVTVSSASTKGPSVFPLAPSSKSTSGGTAALGCLVKDYFPEPVTVSWNSGALTSGVHTFPAVLQSSGLYSLSSVVTVPSSSLGTQTYICNVNHKPSNTKVDKKVEPKSCDKTHTCPPCPAPELLGGPSVFLFPPKPKDTLMISRTPEVTCVVVDVSHEDPEVKFNWYVDGVEVHNAKTKPREEQYNSTYRVVSVLTVLHQDWLNGKEYKCKVSNKALPAPIEKTISKAKGQPREPQVYVYPPSRDELTKNQVSLTCLVKGFYPSDIAVEWESNGQPENNYKTTPPVLDSDGSFALVSKLTVDKSRWQQGNVFSCSVMHEALHNHYTQKSLSLSPG heavy 2: not shown light: DYQMTQSPSSVSASVGDRVTITCRASQSIGDWLAWYQQKPGKAPKLLIYEASTLASGVPSRFSGSGSGTDFTLTISSVQPEDAATYYCQQGYGRSNVDNIFGGGTKVEVKRTVAAPSVFIFPPSDEQLKSGTASVVCLLNNFYPREAKVQWKVDNALQSGNSQESVTEQDSKDSTYSLSSTLTLSKADYEKHKVYACEVTHQGLSSPVTKSFNRGEC |  |  |  |  | 0.54 | 0.73 | 3.45
v30384-MT-GGFG-Compound 141 (antibody, human IgG1, kappa, drug-linker MT-GGFG-Compound 141 on the antibody at DAR 8; conjugated residues not stated) heavy 1: EVQLLESGGGLVQPGGSLRLSCAVSGFSLSSYGVSWVRQAPGKGLEWIGAVNSGGSAYYADSVKGRSTISRDNSKNTVYLQMNSLRAEDTAVYYCARSGSGYPMDYLAIWGQGTLVTVSSASTKGPSVFPLAPSSKSTSGGTAALGCLVKDYFPEPVTVSWNSGALTSGVHTFPAVLQSSGLYSLSSVVTVPSSSLGTQTYICNVNHKPSNTKVDKKVEPKSCDKTHTCPPCPAPELLGGPSVFLFPPKPKDTLMISRTPEVTCVVVDVSHEDPEVKFNWYVDGVEVHNAKTKPREEQYNSTYRVVSVLTVLHQDWLNGKEYKCKVSNKALPAPIEKTISKAKGQPREPQVYVYPPSRDELTKNQVSLTCLVKGFYPSDIAVEWESNGQPENNYKTTPPVLDSDGSFALVSKLTVDKSRWQQGNVFSCSVMHEALHNHYTQKSLSLSPG heavy 2: not shown light: DYQMTQSPSSVSASVGDRVTITCRASQSIGDWLAWYQQKPGKAPKLLIYEASTLASGVPSRFSGSGSGTDFTLTISSVQPEDAATYYCQQGYGRSNVDNIFGGGTKVEVKRTVAAPSVFIFPPSDEQLKSGTASVVCLLNNFYPREAKVQWKVDNALQSGNSQESVTEQDSKDSTYSLSSTLTLSKADYEKHKVYACEVTHQGLSSPVTKSFNRGEC | 5 | 1 | 1.6 | 0.4 | 1.68 | 0.81 | 0.44
v30384-MT-GGFG-Compound 140 (antibody, human IgG1, kappa, drug-linker MT-GGFG-Compound 140 on the antibody at DAR 8; conjugated residues not stated) heavy 1: EVQLLESGGGLVQPGGSLRLSCAVSGFSLSSYGVSWVRQAPGKGLEWIGAVNSGGSAYYADSVKGRSTISRDNSKNTVYLQMNSLRAEDTAVYYCARSGSGYPMDYLAIWGQGTLVTVSSASTKGPSVFPLAPSSKSTSGGTAALGCLVKDYFPEPVTVSWNSGALTSGVHTFPAVLQSSGLYSLSSVVTVPSSSLGTQTYICNVNHKPSNTKVDKKVEPKSCDKTHTCPPCPAPELLGGPSVFLFPPKPKDTLMISRTPEVTCVVVDVSHEDPEVKFNWYVDGVEVHNAKTKPREEQYNSTYRVVSVLTVLHQDWLNGKEYKCKVSNKALPAPIEKTISKAKGQPREPQVYVYPPSRDELTKNQVSLTCLVKGFYPSDIAVEWESNGQPENNYKTTPPVLDSDGSFALVSKLTVDKSRWQQGNVFSCSVMHEALHNHYTQKSLSLSPG heavy 2: not shown light: DYQMTQSPSSVSASVGDRVTITCRASQSIGDWLAWYQQKPGKAPKLLIYEASTLASGVPSRFSGSGSGTDFTLTISSVQPEDAATYYCQQGYGRSNVDNIFGGGTKVEVKRTVAAPSVFIFPPSDEQLKSGTASVVCLLNNFYPREAKVQWKVDNALQSGNSQESVTEQDSKDSTYSLSSTLTLSKADYEKHKVYACEVTHQGLSSPVTKSFNRGEC |  |  |  |  | 1.29 | 3.75 | 12.4
v30384-MT-GGFG-AM-Compound 139 (antibody, human IgG1, kappa, drug-linker MT-GGFG-AM-Compound 139 on the antibody at DAR 8; conjugated residues not stated) heavy 1: EVQLLESGGGLVQPGGSLRLSCAVSGFSLSSYGVSWVRQAPGKGLEWIGAVNSGGSAYYADSVKGRSTISRDNSKNTVYLQMNSLRAEDTAVYYCARSGSGYPMDYLAIWGQGTLVTVSSASTKGPSVFPLAPSSKSTSGGTAALGCLVKDYFPEPVTVSWNSGALTSGVHTFPAVLQSSGLYSLSSVVTVPSSSLGTQTYICNVNHKPSNTKVDKKVEPKSCDKTHTCPPCPAPELLGGPSVFLFPPKPKDTLMISRTPEVTCVVVDVSHEDPEVKFNWYVDGVEVHNAKTKPREEQYNSTYRVVSVLTVLHQDWLNGKEYKCKVSNKALPAPIEKTISKAKGQPREPQVYVYPPSRDELTKNQVSLTCLVKGFYPSDIAVEWESNGQPENNYKTTPPVLDSDGSFALVSKLTVDKSRWQQGNVFSCSVMHEALHNHYTQKSLSLSPG heavy 2: not shown light: DYQMTQSPSSVSASVGDRVTITCRASQSIGDWLAWYQQKPGKAPKLLIYEASTLASGVPSRFSGSGSGTDFTLTISSVQPEDAATYYCQQGYGRSNVDNIFGGGTKVEVKRTVAAPSVFIFPPSDEQLKSGTASVVCLLNNFYPREAKVQWKVDNALQSGNSQESVTEQDSKDSTYSLSSTLTLSKADYEKHKVYACEVTHQGLSSPVTKSFNRGEC | 3.9 | 1 | 1.5 | 1.1 | 1.14 | 0.72 | 1.12
v30384-MC-GGFG-Compound 140 (antibody, human IgG1, kappa, drug-linker MC-GGFG-Compound 140 on the antibody at DAR 8; conjugated residues not stated) heavy 1: EVQLLESGGGLVQPGGSLRLSCAVSGFSLSSYGVSWVRQAPGKGLEWIGAVNSGGSAYYADSVKGRSTISRDNSKNTVYLQMNSLRAEDTAVYYCARSGSGYPMDYLAIWGQGTLVTVSSASTKGPSVFPLAPSSKSTSGGTAALGCLVKDYFPEPVTVSWNSGALTSGVHTFPAVLQSSGLYSLSSVVTVPSSSLGTQTYICNVNHKPSNTKVDKKVEPKSCDKTHTCPPCPAPELLGGPSVFLFPPKPKDTLMISRTPEVTCVVVDVSHEDPEVKFNWYVDGVEVHNAKTKPREEQYNSTYRVVSVLTVLHQDWLNGKEYKCKVSNKALPAPIEKTISKAKGQPREPQVYVYPPSRDELTKNQVSLTCLVKGFYPSDIAVEWESNGQPENNYKTTPPVLDSDGSFALVSKLTVDKSRWQQGNVFSCSVMHEALHNHYTQKSLSLSPG heavy 2: not shown light: DYQMTQSPSSVSASVGDRVTITCRASQSIGDWLAWYQQKPGKAPKLLIYEASTLASGVPSRFSGSGSGTDFTLTISSVQPEDAATYYCQQGYGRSNVDNIFGGGTKVEVKRTVAAPSVFIFPPSDEQLKSGTASVVCLLNNFYPREAKVQWKVDNALQSGNSQESVTEQDSKDSTYSLSSTLTLSKADYEKHKVYACEVTHQGLSSPVTKSFNRGEC | 6.7 | 0.2 | 20.5 | 1.6 |  |  | 
